Reference: the supplement of paper PMC9732359
± gives the uncertainty stated by the source.

Assay: protein stability index of a GFP-peptide fusion (yeast GPS) (PSI 1-4); higher = more stable; sorted into four equal gates, so the index is relative within each strain
Method in brief: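 Tiled 17-residue yeast protein peptides were fused downstream of GFP in a plasmid that also expresses Cherry, and the pooled library was carried in yeast. Mid-log cultures in leucine-free medium were sorted into four equal gates by GFP/Cherry fluorescence ratio, and plasmids from each gate were PCR-amplified and Illumina-sequenced, with reads assigned to strains by barcodes. The protein stability index for each peptide was each gate's read frequency times its gate number, summed.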

| Sequence | protein stability index (doa10∆) | protein stability index (pdr5∆) | protein stability index (san1∆) | protein stability index (ubr1∆) |
| --- | --- | --- | --- | --- |
| SKVTVPPSKHSTLTLSD [ESC2] | 3.29 ± 0.12 | 3.09 ± 0.13 | 2.9 ± 0.071 | 3.1 ± 0.098 |
| SKYCEKSLPLLITVMEK [YCS4] | 1.76 ± 0.052 | 1.86 ± 0.048 | 2.12 ± 0.067 | 1.87 ± 0.039 |
| SKYLIKQIDIPNFNVEI [ECM29] | 1.57 ± 0.069 | 2.01 ± 0.091 | 2.57 ± 0.072 | 2.39 ± 0.059 |
| SLAVRSLQDRSSLVRRN [YCS4] | 2.4 ± 0.041 | 2.71 ± 0.047 | 2.35 ± 0.045 | 2.59 ± 0.038 |
| SLFHTAVSVANGFMHAG [RPN2] | 1.18 ± 0.087 | 1.51 ± 0.077 | 1.29 ± 0.25 | 1.57 ± 0.13 |
| SLFTYFREAIVATEPLL [PRP8] | 1.82 ± 0.048 | 1.83 ± 0.051 | 2.73 ± 0.063 | 1.97 ± 0.041 |
| SLISVLEASLNSITKDN [YJL039C/NUP192] | 2.46 ± 0.052 | 2.24 ± 0.038 | 2.31 ± 0.048 | 2.09 ± 0.026 |
| SLKCTDPYELKGEVVLV [ITC1] | 2.59 ± 0.2 | 3.1 ± 0.24 | 2.44 ± 0.2 | 2.96 ± 0.13 |
| SLKQYAGNLITTPEINN [SRP68] | 2.69 ± 0.073 | 2.88 ± 0.061 | 2.92 ± 0.076 | 2.31 ± 0.041 |
| SLLKTKLKQQSSTDIPS [RRI1] | 2.15 ± 0.05 | 2.4 ± 0.054 | 2.21 ± 0.082 | 2.44 ± 0.062 |
| SLLLAHFFSKSCSFFAK [NUT1] | 1.83 ± 0.057 | 1.62 ± 0.043 | 1.61 ± 0.074 | 1.68 ± 0.039 |
| SLLNLLNISPFTFGLTV [RPP0] | 1.79 ± 0.049 | 1.91 ± 0.049 | 1.56 ± 0.078 | 1.84 ± 0.044 |
| SLLPYYHLTKAVKLGDL [RPN3] | 2.21 ± 0.052 | 1.74 ± 0.052 | 1.72 ± 0.073 | 1.78 ± 0.066 |
| SLNEVGTLKVILNLYSS [YML103C/NUP188] | 1.93 ± 0.12 | 2.11 ± 0.29 |  | 2.4 ± 0.11 |
| SLNYKFTTNKSKDVSRL [SRP21] | 3.13 ± 0.12 | 3.04 ± 0.088 | 3.08 ± 0.081 | 3.14 ± 0.072 |
| SLPFLLRHMPLASIPDI [SSN2] | 1.94 ± 0.072 | 1.69 ± 0.055 | 1.5 ± 0.072 | 1.44 ± 0.045 |
| SLPSKLTKYKEMERIVK [SRP68] | 2.59 ± 0.055 | 2.55 ± 0.064 | 2.42 ± 0.046 | 2.86 ± 0.044 |
| SLQDNSAAINNEDARAI [RPN4] | 3.12 ± 0.078 | 3.19 ± 0.057 | 2.94 ± 0.055 | 3.18 ± 0.05 |
| SLRETNTTDPLGHTKAA [SIR2] | 2.77 ± 0.15 | 2.7 ± 0.15 | 2.85 ± 0.13 | 3.2 ± 0.082 |
| SLSEGCDILVATPGRLI [PRP28] | 3.47 ± 0.12 | 3.23 ± 0.084 | 3.25 ± 0.047 | 3.28 ± 0.05 |
| SLSYMAFPNASKKNRPT [RRP40] | 2.2 ± 0.22 | 2.89 ± 0.15 |  | 2.9 ± 0.14 |
| SLTEATKTNVDNNSKAE [YLR335W/NUP2] | 3.14 ± 0.052 | 3.35 ± 0.064 | 3.14 ± 0.062 | 3.32 ± 0.042 |
| SLTKDKSIRKDTVEEKK [SIR4] | 3.03 ± 0.064 | 3.23 ± 0.062 | 3.1 ± 0.056 | 3.12 ± 0.069 |
| SLVIIILVKRYSIEMKP [ECM29] | 1.15 ± 0.049 | 1.38 ± 0.04 | 1.59 ± 0.069 | 2.04 ± 0.044 |
| SMDTKKKHKQKKVLEID [BRN1] | 3.36 ± 0.063 | 3.32 ± 0.057 | 3.32 ± 0.039 | 3.33 ± 0.044 |
| SMFGSDQKTGRAKSSSH [RPN4] | 3.02 ± 0.087 | 3.25 ± 0.11 | 3.14 ± 0.071 | 2.9 ± 0.076 |

| Sequence | protein stability index (doa10∆) | protein stability index (pdr5∆) | protein stability index (san1∆) | protein stability index (ubr1∆) |
| --- | --- | --- | --- | --- |
| SMGTMICGYTRKEGPTI [PRE2] | 3.27 ± 0.078 | 3.21 ± 0.077 | 3.33 ± 0.039 | 2.71 ± 0.069 |
| SMPLEQLIPIILRQRGP [SRB4] | 2.05 ± 0.057 | 2.31 ± 0.058 | 2.32 ± 0.083 | 1.91 ± 0.055 |
| SNAAGADDAISMHLLKD [SRB8] | 3.17 ± 0.1 | 2.49 ± 0.065 | 3.07 ± 0.099 | 2.76 ± 0.055 |
| SNAVTQTNIWEENWDDV [SEM1] | 3.36 ± 0.085 | 3.46 ± 0.12 | 3.32 ± 0.084 | 3.43 ± 0.14 |
| SNDLCSQIFDQLKDMQT [SRB8] | 2.72 ± 0.047 | 2.67 ± 0.042 | 2.47 ± 0.049 | 2.71 ± 0.034 |
| SNDNLDLISEILKWVQW [MED1] | 3.03 ± 0.057 | 2.92 ± 0.058 | 2.9 ± 0.051 | 3.09 ± 0.047 |
| SNEICDLAYQYVRALEL [SRB2] | 2.92 ± 0.047 | 2.77 ± 0.037 | 2.88 ± 0.046 | 3.08 ± 0.042 |
| SNEIKVTNDLDTSAEKD [SIR4] | 3.29 ± 0.095 | 3.35 ± 0.062 | 3.26 ± 0.055 | 3.04 ± 0.055 |
| SNHNNLNLNNSELQPQN [SNF2] | 3.02 ± 0.044 | 2.7 ± 0.062 | 2.97 ± 0.051 | 2.81 ± 0.056 |
| SNIDYQTLLANSDHAKF [SNF2] | 2.24 ± 0.084 | 2.28 ± 0.093 | 2.32 ± 0.11 | 2.53 ± 0.075 |
| SNIEQTESLRVENSVLI [YIL149C/MLP2] | 3.25 ± 0.091 | 3.09 ± 0.14 | 3.08 ± 0.049 | 3.07 ± 0.064 |
| SNIIHDESDTISFRSNL [SNF6] | 2.79 ± 0.1 | 2.68 ± 0.079 | 2.85 ± 0.098 | 2.7 ± 0.067 |
| SNKPIFLFAPELGAINL [SWI1] | 2.23 ± 0.062 | 1.91 ± 0.051 | 2.08 ± 0.089 | 2.11 ± 0.046 |
| SNPQHIIQPFLDNSKMD [RGR1] | 2.91 ± 0.062 | 2.98 ± 0.075 | 2.53 ± 0.077 | 2.86 ± 0.034 |
| SNPSGNYTGWKAISVGA [PRE9] | 1.89 ± 0.073 | 2.5 ± 0.061 | 2.54 ± 0.086 | 2.22 ± 0.048 |
| SNSAGTSLFGSSSAQQT [YJL041W/NSP1] | 3.15 ± 0.069 | 3.08 ± 0.079 | 3.12 ± 0.073 | 3.17 ± 0.052 |
| SNSSELEPDYQAPFSTS [MED1] | 2.7 ± 0.044 | 2.97 ± 0.057 | 2.82 ± 0.073 | 3.05 ± 0.046 |
| SNTRTMTYKNKLTVCFD [MED2] | 2.51 ± 0.073 | 2.53 ± 0.11 | 1.46 ± 0.24 | 1.35 ± 0.056 |
| SPDQMRNLQMGLRNQNM [GRR1] | 3.23 ± 0.12 | 3.52 ± 0.16 | 3.22 ± 0.088 | 2.71 ± 0.082 |
| SPEEQRSLLQEAIETCK [GAL11] | 1.88 ± 0.099 | 2.97 ± 0.13 | 2.63 ± 0.18 | 2.88 ± 0.069 |
| SPFGGSSHAKGIVLEKL [RPS23A] | 3.19 ± 0.096 | 3.14 ± 0.074 | 3.12 ± 0.067 | 3.17 ± 0.063 |
| SPIPFPPLTYKNDTKIL [PRP8] | 2.91 ± 0.057 | 2.56 ± 0.045 | 2.73 ± 0.059 | 2.24 ± 0.029 |
| SPKPYAVKYGLNHVVAL [RPL8A] | 2.22 ± 0.066 | 2.42 ± 0.06 | 2.44 ± 0.071 | 2.08 ± 0.044 |
| SPLDIYSDEASAQKKRF [RPS2] | 2.74 ± 0.092 | 2.86 ± 0.082 | 3.03 ± 0.07 | 3.03 ± 0.061 |
| SPVELSRMFEEVSGSIQ [SMC1] | 2.9 ± 0.06 | 2.16 ± 0.052 | 2.38 ± 0.065 | 3.02 ± 0.062 |
| SPVQIAFNRFMAESLVD [SSN8] | 1.52 ± 0.043 | 1.97 ± 0.045 | 1.63 ± 0.11 | 1.52 ± 0.044 |
